B1: HDV Ribozyme (parent)
chain: GGCCGGCAUGGUCCCAGCCUCCUCGCUGGCGCCGGCUGGGCAACAUUCCGAGGGGACCGUCCCCUCGGUAAUGGCGAAUGGGACCCA

The variants in this data set derive from B1. As to the kind of experiment: self-cleavage, relative activity (ratio to wild type); higher = more cleavage; co-transcriptional.
Take GGCCGGCAUGGUCCCGGCCUCCUCGCUGGCGCCGGCUGGGCAACAUUCCGAGGGGUCCGUCCCCUCGGUAAUGGCGAAUGGGACCCA: the self-cleavage came out at 1.25.

On to GGCCGGCAUGGUCCCAGCCUCCUCGCUGGCGCCGGCUGGGCAACAUUCCGAGGGGACCGUCCCCUCGGUAAUGGCGAAUGGAUCCCA, for which the self-cleavage stood at 0.376.

GGCCGGCAUGGUCCCAGCCUACUCGCUGGCGCCGGCUGGGCAACAUUCCGAGGGGACCGUCCCCUCGGUAAUGGCGAAUGGGACCAA: the self-cleavage turned out to be 0.0563.

Consider GUCCGGCAUGGUCCCAGCCUCCUCGCUGGCGCCGGCUGGGCAACAUUCCGAGGGGACCGUCCCCUCAGUAAUGGCGAAUGGGACCCA, for which the self-cleavage is 0.0602.

In the case of GGCCGGCAUGGUCCCAGGCUCCUCGCUGGCGCCGGCUGGGCAACAUUCCGAGGGGACCGUCCCCUCGGUAAUGGCGUAUGGGACCCA, the self-cleavage was 0.

For the variant GGCCGGCAUGGUCCCAGCGUCCUCGCUGGCGCCGGCUGGGCAACAUUCCGAGGGGACCGUCCCCUCGGUAAUGGCGAGUGGGACCCA, the self-cleavage worked out at 0.0875.

For GGCCCGCAUGGUCCCAGCCUCCUCGCUGGCGCCGGCUGGGCAACAUUCCGAGGGGACCGUCCCCUCGGUAAGGGCGAAUGGGACCCA, the self-cleavage was determined as 0.0831.

For GGCCGGCAUGGUCCCAGCCUCCUCGCUGGCGCCGGCUGGGCAACAAUCCGAGGGGACCGUCCGCUCGGUAAUGGCGAAUGGGACCCA, the self-cleavage is 0.723.

Turning to AGCCGGCAUGGUCCCAACCUCCUCGCUGGCGCCGGCUGGGCAACAUUCCGAGGGGACCGUCCCCUCGGUAAUGGCGAAUGGGACCCA, the self-cleavage came out at 0.0811.

As to GGCCGGCAUGGUCCCAGCCUCCUCGCUGGCGCCGGCUGGGCAACAUUCCGAGGGGACCUUCCCCUCGGUAAUGACGAAUGGGACCCA, the self-cleavage turned out to be 0.46.

Take UGCCGGCAUGGUCCCAGCGUCCUCGCUGGCGCCGGCUGGGCAACAUUCCGAGGGGACCGUCCCCUCGGUAAUGGCGAAUGGGACCCA: the self-cleavage is 0.348.

Consider AGCCGGCAUGGUCCCAGCCUCCUCGCUGGCGCCGGCUGGGCAACAUUCCGAGGGGACCGUCCCCUCGGUAAUGGCGAAUGGGAUCCA, for which the self-cleavage worked out at 0.229.

With GGCCGGCAUUGUCCCAGCCUCCUCGCUGGCGCCGGCUGGGCAACAUUCCGAGGGGAACGUCCCCUCGGUAAUGGCGAAUGGGACCCA, the self-cleavage is 0.749.

In the case of GGCCGGCAUGGUCCCAGCCUCCUCGCUGGUGCCGGCUGGGCAACUUUCCGAGGGGACCGUCCCCUCGGUAAUGGCGAAUGGGACCCA, the self-cleavage worked out at 0.32.

On to GGCCGGCAUGGUCCCAGCCUCCCCGCUGGCGCCGGCUGCGCAACAUUCCGAGGGGACCGUCCCCUCGGUAAUGGCGAAUGGGACCCA, for which the self-cleavage is 0.244.

GGCCGGCAUGGUCCCAGCCUCCUCGCUGGCGCCGGCCGGGCAACAUUCCGAGGGGACCGUCCCCUCGGUAAUCGCGAAUGGGACCCA: the self-cleavage worked out at 0.356.

For the variant GGCCGGCAUGGUCCCAGCUUCGUCGCUGGCGCCGGCUGGGCAACAUUCCGAGGGGACCGUCCCCUCGGUAAUGGCGAAUGGGACCCA, the self-cleavage stood at 0.0692.

For GGCCGGCAUGGUCCCAGCCUCCUCGCUGGCGCCGGCUGGGCAACAUUCCGAGGGGACCGUCCCCUCGGUAAUGGCGAAUGGGCCCCG, the self-cleavage was 0.302.

With GGCCGGCAUGGUCCAAGCCUCCUCGCUGGCGCCGGCUGGGCAACAUUCCGAGGGGACCGUCCCCUCUGUAAUGGCGAAUGGGACCCA, the self-cleavage worked out at 0.633.

As to GGCCGGCAUGGUCCCAGCCUCCUCGCUGGCGCCGGCUGGGCAACAUUCCGAGGGGACCGUCCACUCGGUAAUGGCGAAUGGGAACCA, the self-cleavage stood at 0.96.

Consider GGCCGGCAUGGUCCCAGCGUCCUCGCUGGCGCCGGCUGGGCAACAUUCCGAGGGGACCGUCCCCUCGGUAAUGGCGAAUGGUACCCA, for which the self-cleavage was 0.0627.

Consider GGCCGGCAUGUUCCCAGCCUCCUCGCUGGCGCCGGCUGGGCAACAUUCCGAGGCGACCGUCCCCUCGGUAAUGGCGAAUGGGACCCA, for which the self-cleavage is 0.57.

Take GGCCGGCAUGGUCCCAGCCUCCUCGCUGGCGCCGGCCGGGCAACAUUCCGAGGGGACCGUCCCCUCGGUAAUGGCGAAUGAGACCCA: the self-cleavage stood at 0.283.

As to GGCCGGCAUGAUCCCAGCCUCCUCGCUGGCGCCGGCUGGGCAACAUUCCGAGGGGUCCGUCCCCUCGGUAAUGGCGAAUGGGACCCA, the self-cleavage is 0.487.

Regarding GGCCGGCAUGGUCCCAGCCUCCUCGCUGGCGCCGUCUGGGCAACAUUCCGAGGGGAACGUCCCCUCGGUAAUGGCGAAUGGGACCCA, the self-cleavage is 0.517.

Regarding GGCCGGCAUGGUCCCAGCCUCCUCGCUGGCGCCGGCUGGGCAACAUUCGGAGGGGACCGUCCCCUCGGUAAUGGCGAAUGGGACACA, the self-cleavage is 0.789.

Consider GGCCGGCAUGGUCCCAGCCCCCUCGCUGGCGCCGGCUGGGCAACAUUCCUAGGGGACCGUCCCCUCGGUAAUGGCGAAUGGGACCCA, for which the self-cleavage worked out at 0.163.

GGCCGGCAUGGUCCCAGCCUCCUCGCUGGCGCCGGCUGGGCAACAUUCCGAGGGGACCGUCCCCUCGGUAAUGCCGAAUGGGACCCG: the self-cleavage was 0.291.

In the case of GGCAGGCAUGGUCCCAGCCUCCUCGCUGGCGCCGGCUGGGCAACAUUCCGAGGGGACCGUCCCCUCGGUAAUGGCGAAUGGGACCUA, the self-cleavage is 0.284.

In the case of GGCCGGCAUGGUCCCAGCCUCCUCCCUGGCGCCGGCUGGGCAACAUUACGAGGGGACCGUCCCCUCGGUAAUGGCGAAUGGGACCCA, the self-cleavage is 0.0415.

As for GGCCGGCAUGGUCCCAGCCUCCUCGCUGGCGCCGGCUGGGCAACAUUCCGAGGGGACCGUCCCAUCGGUAAUGGCGAACGGGACCCA, the self-cleavage was found to be 0.636.

GGCCGGCAUGGUCCCAGCCUCCUCGCUGGCUCCGGCUGGGCAACAUUCCGAGGGGACCGUCCCGUCGGUAAUGGCGAAUGGGACCCA: the self-cleavage is 0.514.

As for GGCCGGCAUGGUCCCAGCCUCCUCGCUUGCGCCGGCUGGGCAACAUUCCGAGGGGACCGUCCCCUCGGUAAUGGCAAAUGGGACCCA, the self-cleavage came out at 0.142.

As to GGCCGGCAUGGUCCCCGCCUCCUCGCUGGCGCCGGCUGGGCAACAUUCCGAGGGGACCGUACCCUCGGUAAUGGCGAAUGGGACCCA, the self-cleavage amounted to 0.332.

GGCCGGCAUGGUCCCAGCCUCCUCGCUGGCGGCGGCUGGGCAACAUUCCGAGGGGACCGUCCCCUCGGUAAUGGCCAAUGGGACCCA: the self-cleavage is 0.224.

For GGCCGGCAUGGUCCCAGCCUCUUCGCUGGCGCCGGCUGGGCAACACUCCGAGGGGACCGUCCCCUCGGUAAUGGCGAAUGGGACCCA, the self-cleavage was determined as 0.268.

Take GGCCGGCAUGGUCCGAGCCUCCUCGCUGGCGCCGGCUGGGCAACAUUUCGAGGGGACCGUCCCCUCGGUAAUGGCGAAUGGGACCCA: the self-cleavage worked out at 0.237.

For the variant GGCCGGCAUGGUCCCAGCCUCCUCGCCGGCGCCGGCUGGGCAACAUUCCGAGGGGACCGUCCCCUCGGUUAUGGCGAAUGGGACCCA, the self-cleavage amounted to 0.72.

Consider GGCCGGCAGGGUCCCAGCCUCCUCGCUGGCGCCGGCUCGGCAACAUUCCGAGGGGACCGUCCCCUCGGUAAUGGCGAAUGGGACCCA, for which the self-cleavage was 0.302.

In the case of GGCCGGCAUGCUCCCAGCCUCCUCGCUGGCGCCGGCUGGGCAACAUUGCGAGGGGACCGUCCCCUCGGUAAUGGCGAAUGGGACCCA, the self-cleavage came out at 0.399.

Regarding GGCCGGCAUGGUCCCAGCCUCCUCGCUGGCGCCGGCUGCGCGACAUUCCGAGGGGACCGUCCCCUCGGUAAUGGCGAAUGGGACCCA, the self-cleavage came out at 0.0811.

For the variant GGCCGGCAUGGUCCCAGCCUCCUCGCUGGCGCCGGCUGGGAAACAUUCCGAGGGGACCGUCCCCUCGAUAAUGGCGAAUGGGACCCA, the self-cleavage amounted to 1.01.

For the variant GGCCGGCAUGGUCCCAGCCUCCUCUCUGGCGCCGGCUGGGCAACAUUCCGAGGGGACCGUCCCCUCGGUAAUGGCGAAUGGGACUCA, the self-cleavage was determined as 0.415.

For GGCCGGCAUGGUCCCAGCCUCCUCGCUGGCGCCGGCUGGGCCACAUUUCGAGGGGACCGUCCCCUCGGUAAUGGCGAAUGGGACCCA, the self-cleavage came out at 0.26.

In the case of GGCCGGCAUGGUCCCAGCCUCCUAGCUGGCGCAGGCUGGGCAACAUUCCGAGGGGACCGUCCCCUCGGUAAUGGCGAAUGGGACCCA, the self-cleavage stood at 0.0811.

With GGCCGGCAUGGUCCCAGCCUCCUCGCUGGCUCCGGCUGGGCAACAUUCCGAGGGGACCGUCCCCUCCGUAAUGGCGAAUGGGACCCA, the self-cleavage came to 0.245.

Turning to GGCCGGCAUGGUCCCAGCCUCCUCGCUGGCGCCGGCUGGGCAACAUUUCGAGGGGACCGUCCCCUCGGUAAUGGCGAAUGGGUCCCA, the self-cleavage stood at 0.475.

Consider GGCCGGCAUGGUCCCAGCCUCCUCGCUGGCGCCGGCUGGGCAACAUUCCGAGGGCACCGUCCCCUCGGUAAUGGCGAUUGGGACCCA, for which the self-cleavage is 0.324.

On to GGCCGGCAUGGUCCCAGCCUCCUCGCUGGCGCCGGCCGGGCAACAUUCCGAGGGGACCGUCCCCUCGGUAACGGCGAAUGGGACCCA, for which the self-cleavage was 0.462.

Regarding GGCCGGCAUGGUCCCAACCUCCUCGCUGGGGCCGGCUGGGCAACAUUCCGAGGGGACCGUCCCCUCGGUAAUGGCGAAUGGGACCCA, the self-cleavage stood at 0.631.

Turning to GGCCGGCAUGGUCCCAGCCUCCUCGCUGGCGCCGGCUGGUCAACAUUACGAGGGGACCGUCCCCUCGGUAAUGGCGAAUGGGACCCA, the self-cleavage came to 0.76.

Turning to GGCCGGCAUGGUCCCAGCCUCCUCGCUGGCGCCGGCUGGGCAACAUUCCGAUGGGACCGUCCCCUCGGUAAUGGCGACUGGGACCCA, the self-cleavage is 0.292.

GGCCGGCAUGGUCCCAGCCUCCUCGCUGGCGCCGGCUGGGCAACAGUCCGAGGGGACCGUCCCCUCGGUAAUGGCGAAAGGGACCCA: the self-cleavage amounted to 0.356.

Regarding GGCCGGCAUGGUCCCAGCCUCCUCGCUGGCGCCGGCUGGGCAAGAUUCCGAGGGGACCGUCCCCUCGAUAAUGGCGAAUGGGACCCA, the self-cleavage worked out at 0.677.

As to GGCCGGCAUGGUCCCAGCCUCCUCGCUGGCGCCGGCUGGGCAACAUGCCGAGGGGACCGUCCCCUCGGUAAAGGCGAAUGGGACCCA, the self-cleavage was 0.831.

In the case of GGCCGGCAUGGUCCCAGCCUCCUCACUGGCGCCGGCUGGGCAACAUUCCGUGGGGACCGUCCCCUCGGUAAUGGCGAAUGGGACCCA, the self-cleavage amounted to 0.318.

For GGCCGGCAUCGUCCCAGCCUCCUCGCUGGCGCCGGCUGGGCAACAUUCCGAGGGGACCGUCCCCUCGGUAAUGCCGAAUGGGACCCA, the self-cleavage stood at 0.161.

Consider GGCCGGCAUGGUCCCAGCCUCCUCGCUGGCGACGGCUGGGCAACAUUCCGAGGGGACCGUCCCCUCGGUAAUGGCGAAUAGGACCCA, for which the self-cleavage turned out to be 0.183.

Take GGCCGGCAUGGUCCCAGCCUCCUCGCUGGCGCCGGCUGGGCAAGAUUCCGAGGGGACCGUCCCCUCGGUAAUGGCGAAUGGGAUCCA: the self-cleavage is 0.53.

In the case of GGCCGGCAUGGUCCGAGCCUCUUCGCUGGCGCCGGCUGGGCAACAUUCCGAGGGGACCGUCCCCUCGGUAAUGGCGAAUGGGACCCA, the self-cleavage came out at 0.222.

As for GGCCGGCAUGGUCCCAGCCUCCUCGCCGGCGACGGCUGGGCAACAUUCCGAGGGGACCGUCCCCUCGGUAAUGGCGAAUGGGACCCA, the self-cleavage worked out at 0.0519.

For GGCCGGCAUGGUCCCAGCCUCCUCGCUGGCGCCGGCUGGGCAACAUUCCGAGGGAACCGUCCCCUCGGUAAUGGCGACUGGGACCCA, the self-cleavage was 0.0639.

Consider GGCCGGCAUGGUCCCAGCCUCCUCGCUAGCGCCGGCUGGGCAACAUUCCGCGGGGACCGUCCCCUCGGUAAUGGCGAAUGGGACCCA, for which the self-cleavage was found to be 0.

As to GGCCGGCAUGGUCCCAGCCUCCUCGCUGGCGCCGGCUGGGCAACAUUCCGAGGGGACCGUCCCCUCGGUAGUGGCGACUGGGACCCA, the self-cleavage was 0.138.

These data come from the RNAGym collection of RNA variant scans (doi:10.7554/elife.80360).
